Data set [1] is described as follows: confocal colocalisation with LAMP-1/CD63 (Pearson), cell lines. The conditions noted are these: control: untreated cells.
Data set [2] is described as follows: confocal colocalisation (Pearson), primary and super-charged NK cells. The conditions noted are these: glycan changed form; control: untreated cells.
Data set [3] in a line: western blot of cell media. The following applies: glycan lost; control: untreated cells. In general terms: Immunoblotting shows a protein as a band on a membrane.

B1: cystatin F: kifunensine (10 µM, 6 h); U-937, TALL-104, NK-92 (protein)
parent chain: MRAAGTLLAFCCLVLSTTGGPSPDTCSQDLNSRVKPGFPKTIKTNDPGVLQAARYSVEKFNNCTNDMFLFKESRITRALVQIVKGLKYMLEVEIGRTTCKKNQHLRLDDCDFQTNHTLKQTLSCYSEVWVVPWLQHFEVPVLRCH
Take B1: the localisation_or_trafficking result in data set [1] (glycan changed form) is recorded as “increases”.

B2: cystatin F: kifunensine (10 µM, 6 h); pNK, sNK (protein)
parent chain: B1 parent chain
For B2, the localisation_or_trafficking result in data set [2] is recorded as “increases”.

B3: cystatin F: tunicamycin (1 µg/mL); U-937, NK-92 (protein)
parent chain: B1 parent chain
On to B3, for which the localisation_or_trafficking entry in data set [1] (glycan lost) is recorded as “decreases”.

B4: cystatin F: tunicamycin (protein)
parent chain: B1 parent chain
With B4, in data set [3], the expression_or_secretion entry is “changes”.

Source of the values: article PMC10719177.
